What was measured:
[1] = target: T1, cMet-Fc fusion protein (extracellular domain of the cMet receptor expressed as an Fc-fusion protein) (human, UniProt P08581 25-932); test: phage ELISA, cMet-Fc vs TRAIL-Fc
T1 construct: extracellular domain; also called soluble cMet-Fc-fusion protein; soluble cMet receptor; not shown: Fc part
Method in brief: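 Specificity check: phage displaying peptides incubated 2 h at room temperature on wells coated with 0.5 μg/mL cMet-Fc versus TRAIL-Fc, after blocking with 3% BSA/PBST. HRP-anti-M13 antibody detected binding phage.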

[2] = target: T2, human cMet expressed on 3T3 cells (human, UniProt P08581 25-1390); test: whole cell phage ELISA, 3T3 human cMet vs 3T3
T2 construct: whole, on cells; cells fixed with glutaraldehyde; also called cell surface-expressed human cMet; 3T3 cells that over-express human cMet
T2 sequence (P08581 25-1390): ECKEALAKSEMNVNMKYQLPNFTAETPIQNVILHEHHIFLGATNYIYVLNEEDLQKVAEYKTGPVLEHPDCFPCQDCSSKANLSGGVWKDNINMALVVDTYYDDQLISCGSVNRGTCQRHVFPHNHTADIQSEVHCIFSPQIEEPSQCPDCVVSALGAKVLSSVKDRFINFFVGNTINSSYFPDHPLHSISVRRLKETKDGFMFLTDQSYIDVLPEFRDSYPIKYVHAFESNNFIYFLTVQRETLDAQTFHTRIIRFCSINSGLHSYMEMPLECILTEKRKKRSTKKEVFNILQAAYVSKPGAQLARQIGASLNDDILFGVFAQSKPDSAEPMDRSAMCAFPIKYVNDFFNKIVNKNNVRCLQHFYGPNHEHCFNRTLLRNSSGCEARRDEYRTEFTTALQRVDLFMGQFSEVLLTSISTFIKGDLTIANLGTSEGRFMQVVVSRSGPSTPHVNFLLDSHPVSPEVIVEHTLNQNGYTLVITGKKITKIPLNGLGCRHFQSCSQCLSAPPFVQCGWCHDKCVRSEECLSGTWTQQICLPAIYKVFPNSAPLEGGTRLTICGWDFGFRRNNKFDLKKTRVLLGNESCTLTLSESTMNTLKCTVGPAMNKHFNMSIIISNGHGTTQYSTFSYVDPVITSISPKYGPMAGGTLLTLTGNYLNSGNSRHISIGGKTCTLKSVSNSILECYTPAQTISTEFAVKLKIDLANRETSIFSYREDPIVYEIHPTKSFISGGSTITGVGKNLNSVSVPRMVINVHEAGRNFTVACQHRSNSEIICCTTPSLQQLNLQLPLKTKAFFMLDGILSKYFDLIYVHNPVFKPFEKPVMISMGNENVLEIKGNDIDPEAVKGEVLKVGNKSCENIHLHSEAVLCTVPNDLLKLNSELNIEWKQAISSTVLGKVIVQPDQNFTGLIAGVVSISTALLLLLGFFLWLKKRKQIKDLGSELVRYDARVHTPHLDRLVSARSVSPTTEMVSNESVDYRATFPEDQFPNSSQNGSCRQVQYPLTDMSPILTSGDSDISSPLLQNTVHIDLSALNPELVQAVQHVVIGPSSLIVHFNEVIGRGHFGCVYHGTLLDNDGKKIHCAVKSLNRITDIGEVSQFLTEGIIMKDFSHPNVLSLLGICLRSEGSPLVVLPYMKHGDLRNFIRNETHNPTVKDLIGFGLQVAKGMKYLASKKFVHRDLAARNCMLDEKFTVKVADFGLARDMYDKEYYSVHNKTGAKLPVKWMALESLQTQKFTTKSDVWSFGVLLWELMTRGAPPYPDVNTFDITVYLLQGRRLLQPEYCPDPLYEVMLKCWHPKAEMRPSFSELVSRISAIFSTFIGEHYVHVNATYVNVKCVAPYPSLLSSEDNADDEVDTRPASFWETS
Method in brief: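 Bound phage was detected with an HRP-conjugated anti-M13 antibody after PBST washes. The cells were cMet-over-expressing 3T3, read against plain 3T3.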

[3] = target: T1, cMet-Fc fusion protein (extracellular …); test: phage ELISA on cMet-Fc, competitor HGF 100 ng/mL
Method in brief: (§1)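 Plates coated with 0.5 μg/mL cMet-Fc, with TRAIL-Fc as background, then blocked with 3% BSA. Bound phage detected with HRP anti-M13 antibody.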

[4] = target: T1, cMet-Fc fusion protein (extracellular …); test: phage ELISA on cMet-Fc, competitor HGF 500 ng/mL
Method in brief: as §1

T1 sequence (P08581 25-932): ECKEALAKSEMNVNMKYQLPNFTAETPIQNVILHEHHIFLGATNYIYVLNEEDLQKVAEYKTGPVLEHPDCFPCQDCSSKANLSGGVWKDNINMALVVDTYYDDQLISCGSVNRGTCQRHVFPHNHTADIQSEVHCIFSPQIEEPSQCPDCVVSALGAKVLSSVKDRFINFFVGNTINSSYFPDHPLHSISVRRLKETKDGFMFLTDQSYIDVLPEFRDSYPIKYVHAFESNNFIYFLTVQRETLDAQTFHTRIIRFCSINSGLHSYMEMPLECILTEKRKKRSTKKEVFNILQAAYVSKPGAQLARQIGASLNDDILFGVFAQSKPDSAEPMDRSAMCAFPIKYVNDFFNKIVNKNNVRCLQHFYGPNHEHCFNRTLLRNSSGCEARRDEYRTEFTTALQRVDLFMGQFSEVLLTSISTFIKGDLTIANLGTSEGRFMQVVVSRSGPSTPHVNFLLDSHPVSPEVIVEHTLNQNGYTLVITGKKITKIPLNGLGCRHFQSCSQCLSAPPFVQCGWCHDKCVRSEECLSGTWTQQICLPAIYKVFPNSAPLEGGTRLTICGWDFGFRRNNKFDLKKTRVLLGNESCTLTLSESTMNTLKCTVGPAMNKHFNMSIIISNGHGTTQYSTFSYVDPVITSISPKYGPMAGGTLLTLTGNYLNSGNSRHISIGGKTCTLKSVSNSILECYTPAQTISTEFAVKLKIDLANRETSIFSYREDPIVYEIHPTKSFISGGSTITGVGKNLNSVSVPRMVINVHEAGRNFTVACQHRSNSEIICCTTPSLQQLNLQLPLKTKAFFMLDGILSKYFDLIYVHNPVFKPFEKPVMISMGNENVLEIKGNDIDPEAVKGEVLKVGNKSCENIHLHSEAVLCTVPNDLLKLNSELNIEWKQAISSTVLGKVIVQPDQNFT

Row | Binder | Protein ELISA (fold over background) [1] [fold] | WC ELISA (fold over background) [2] [fold] | % of binding in the absence of HGF [3] [%] | % of binding in the absence of HGF [4] [%]
1 | AGAWNCEYPTFICEWQGA [570-E07 peptide-displaying phage (SEQ ID NO: 012)] | 4.5 | 1.27 | 81 | 71
2 | GDYSECFFEPDSFEVKCYDRDP [545-H12 peptide-displaying phage (SEQ ID NO: 399)] | 11.3 | 1.3 | 74 | 60
3 | GSSHCNQMITPWQNCGMRAP [446-E12 peptide-displaying phage (SEQ ID NO: 374)] | 3.3 | 1.37 | 73 | 83
4 | GDHLTCEFRDDGWKEHCWWSDP [552-F06 peptide-displaying phage (SEQ ID NO: 403)] | 11.1 | 1.23 | 82 | 32
5 | GDYRMCQISDMWGNYECSSDDP [548-G05 peptide-displaying phage (SEQ ID NO: 400)] | 6.1 | 1.3 | 110 | 47
6 | GSMLGCLFEHQNKYDCYVLAP [443-D04 peptide-displaying phage (SEQ ID NO: 379)] | 3.2 | 1.43 | 69 | 73
7 | GSELFCFYHHQGYEGCDVLAP [465-B07 peptide-displaying phage (SEQ ID NO: 385)] | 4.8 | 1.27 | 111 | 79
8 | GDLLGCGYQEKGGEYKCRFNDP [334-F05 peptide-displaying phage (SEQ ID NO: 395)] | 13.5 | 1.4 | 58 | 29
9 | GDLLVCKFDDKFWTETCEWADP [549-G05 peptide-displaying phage (SEQ ID NO: 392)] | 23.7 | 1.47 | 28 | 21
10 | GDASWCDENSPAAWFYCELWDP [551-D02 peptide-displaying phage (SEQ ID NO: 394)] | 13.4 | 1.37 | 91 | 70
11 | GDSYNCSWDSKTFEVTCLYADP [546-B01 peptide-displaying phage (SEQ ID NO: 393)] | 8.4 | 1.2 | 95 | 77
12 | GDPWWCFEKDSFIPFACWHHDP [330-G02 peptide-displaying phage (SEQ ID NO: 396)] | 7.4 | 1.3 | 37 | 31
13 | GDNRFCSWVYNVDDWWCVDNDP [332-H09 peptide-displaying phage (SEQ ID NO: 398)] | 6.2 | 1.3 | 50 | 43
14 | GDPDECQLNRETFEVWCPWHDP [547-C09 peptide-displaying phage (SEQ ID NO: 401)] | 4.3 | 1.23 | 50 | 32
15 | GSMNMCDTTDEISPTCHPSAP [441-H01 peptide-displaying phage (SEQ ID NO: 378)] | 3.6 | 1.4 | 91 | 69
16 | GSFTACNKTSTTRQPCNPYAP [451-B12 peptide-displaying phage (SEQ ID NO: 384)] | 3.1 | 1.37 | 61 | 27
17 | GSSARCDELINDFHSCLVMAP [445-E06 peptide-displaying phage (SEQ ID NO: 375)] | 4.3 | 1.33 | 83 | 73

Row | Binder | Protein ELISA (fold over background) [1] [fold] | WC ELISA (fold over background) [2] [fold] | % of binding in the absence of HGF [3] [%] | % of binding in the absence of HGF [4] [%]
18 | GSAGWCYTMNYVDQLCTYMAP [445-E11 peptide-displaying phage (SEQ ID NO: 387)] | 3.7 | 1.43 | 69 | 79
19 | GDYYQCQFSKDMYSERCWPYDP [316-F08 peptide-displaying phage (SEQ ID NO: 397)] | 7 | 1.3 | 72 | 38
20 | AGDGWCMAWPEICEWLGT [434-E12 peptide-displaying phage (SEQ ID NO: 014)] | 4.8 | 1.33 | 117 | 41
21 | GDHRKCEISAKTHEVTCYDNDP [545-F04 peptide-displaying phage (SEQ ID NO: 402)] | 5.2 | 1.17 | 143 | 114
22 | GSDMNCTVLAQDQIFCFREAP [451-C06 peptide-displaying phage (SEQ ID NO: 386)] | 3 | 1.37 | 108 | 86
23 | GDYDYCDFDLETYIPECHSYDP [546-G02 peptide-displaying phage (SEQ ID NO: 390)] | 16.1 | 1.27 | 32 | 19
24 | GSGMGCHQVNISTGDCAEDAP [442-E03 peptide-displaying phage (SEQ ID NO: 381)] | 3.9 | 1.43 | 130 | 81
25 | GSGDPCSPGPSINGHCSVMAP [453-A05 peptide-displaying phage (SEQ ID NO: 382)] | 4.5 | 1.33 | 51 | 28
26 | GSSQICAVYLDDTHNCERHAP [465-A03 peptide-displaying phage (SEQ ID NO: 373)] | 4 | 1.3 | 33 | 17
27 | GSTMSCWRWGRDAYSCNQMAP [557-A12 peptide-displaying phage (SEQ ID NO: 372)] | 4.6 | 1.37 | 87 | 62
28 | GDDFHCEFIDDYQSEICYFNDP [333-C03 peptide-displaying phage (SEQ ID NO: 391)] | 12.4 | 1.37 | 52 | 43
29 | GSFWNCTTDLGAMSDCGFFAP [445-E07 peptide-displaying phage (SEQ ID NO: 383)] | 3.1 | 1.37 | 82 | 64
30 | AGNWICNLSEMRCYPKGT [456-E04 peptide-displaying phage (SEQ ID NO: 013)] | 3.9 | 1.4 | 82 | 81
31 | GSQNNCEYGSRGSSFCLAMAP [465-C06 peptide-displaying phage (SEQ ID NO: 377)] | 6.4 | 1.23 | 184 | 104
32 | GSLYRCLGEASPTPPCAYEAP [445-G12 peptide-displaying phage (SEQ ID NO: 380)] | 4 | 1.37 | 85 | 52
33 | GSRFHCWQGDLMQTYCMPMAP [452-A03 peptide-displaying phage (SEQ ID NO: 376)] | 3 | 1.3 | 140 | 112
